Among the data in patent US7211395 (dated 2007) are Kd values, retold here.

For one experiment, the target named is T1, chicken ovalbumin (chicken, UniProt P01012).
T1 chain: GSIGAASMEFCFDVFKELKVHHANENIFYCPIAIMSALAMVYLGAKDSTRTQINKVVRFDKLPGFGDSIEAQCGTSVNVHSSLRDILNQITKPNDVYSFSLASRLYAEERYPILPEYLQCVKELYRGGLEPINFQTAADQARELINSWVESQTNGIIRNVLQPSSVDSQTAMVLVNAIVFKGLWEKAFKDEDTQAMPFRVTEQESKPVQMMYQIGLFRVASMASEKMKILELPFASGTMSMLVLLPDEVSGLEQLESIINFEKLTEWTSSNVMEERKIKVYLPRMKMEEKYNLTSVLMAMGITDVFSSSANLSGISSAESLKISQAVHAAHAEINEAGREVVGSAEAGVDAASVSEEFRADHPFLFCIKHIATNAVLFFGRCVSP
The experiment in a line: FP, PBS pH 7.4.

A further experiment concerns the target T2, rat serum albumin (rat, UniProt P02770).
T2 chain: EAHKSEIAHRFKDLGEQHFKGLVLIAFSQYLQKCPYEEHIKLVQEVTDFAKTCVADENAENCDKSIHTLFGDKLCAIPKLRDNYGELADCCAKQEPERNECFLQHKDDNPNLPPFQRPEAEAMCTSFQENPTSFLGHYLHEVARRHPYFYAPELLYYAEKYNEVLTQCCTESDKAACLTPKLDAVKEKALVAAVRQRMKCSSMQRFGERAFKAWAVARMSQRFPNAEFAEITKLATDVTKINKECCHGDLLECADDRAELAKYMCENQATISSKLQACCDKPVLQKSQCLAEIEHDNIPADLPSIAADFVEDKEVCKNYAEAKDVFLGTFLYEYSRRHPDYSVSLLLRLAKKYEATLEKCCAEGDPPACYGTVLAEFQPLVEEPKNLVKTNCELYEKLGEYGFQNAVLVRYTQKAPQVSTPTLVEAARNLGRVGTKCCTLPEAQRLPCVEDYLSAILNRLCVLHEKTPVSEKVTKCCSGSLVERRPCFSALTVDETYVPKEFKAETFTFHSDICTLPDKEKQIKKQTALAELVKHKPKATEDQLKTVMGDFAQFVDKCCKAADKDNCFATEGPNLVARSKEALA
The experiment in a line: FP, PBS pH 7.4.

A further experiment concerns the target bovine serum albumin (bovine, UniProt P02769). The experiment in a line: FP, PBS pH 7.4.
In a further experiment the target is T3, rhesus serum albumin (rhesus macaque, UniProt Q28522).
T3 chain: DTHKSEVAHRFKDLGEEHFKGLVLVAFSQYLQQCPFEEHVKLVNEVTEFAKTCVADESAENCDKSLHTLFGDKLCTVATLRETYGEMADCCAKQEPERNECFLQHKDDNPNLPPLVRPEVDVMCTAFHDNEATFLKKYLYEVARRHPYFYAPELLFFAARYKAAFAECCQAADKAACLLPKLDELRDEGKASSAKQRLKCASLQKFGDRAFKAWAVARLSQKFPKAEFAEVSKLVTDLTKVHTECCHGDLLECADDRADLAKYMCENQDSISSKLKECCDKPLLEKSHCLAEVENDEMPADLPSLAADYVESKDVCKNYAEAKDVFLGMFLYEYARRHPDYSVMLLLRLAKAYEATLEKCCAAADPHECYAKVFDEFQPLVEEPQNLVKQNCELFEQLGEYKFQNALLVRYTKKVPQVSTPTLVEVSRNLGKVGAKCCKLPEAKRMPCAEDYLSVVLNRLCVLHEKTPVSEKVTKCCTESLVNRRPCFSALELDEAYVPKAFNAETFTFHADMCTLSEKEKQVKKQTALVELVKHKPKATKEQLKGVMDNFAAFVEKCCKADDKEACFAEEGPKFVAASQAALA
The experiment in a line: FP, pH 6.2, no NaCl.

A further experiment has as its target T4, pig serum albumin (pig, UniProt P08835).
T4 chain: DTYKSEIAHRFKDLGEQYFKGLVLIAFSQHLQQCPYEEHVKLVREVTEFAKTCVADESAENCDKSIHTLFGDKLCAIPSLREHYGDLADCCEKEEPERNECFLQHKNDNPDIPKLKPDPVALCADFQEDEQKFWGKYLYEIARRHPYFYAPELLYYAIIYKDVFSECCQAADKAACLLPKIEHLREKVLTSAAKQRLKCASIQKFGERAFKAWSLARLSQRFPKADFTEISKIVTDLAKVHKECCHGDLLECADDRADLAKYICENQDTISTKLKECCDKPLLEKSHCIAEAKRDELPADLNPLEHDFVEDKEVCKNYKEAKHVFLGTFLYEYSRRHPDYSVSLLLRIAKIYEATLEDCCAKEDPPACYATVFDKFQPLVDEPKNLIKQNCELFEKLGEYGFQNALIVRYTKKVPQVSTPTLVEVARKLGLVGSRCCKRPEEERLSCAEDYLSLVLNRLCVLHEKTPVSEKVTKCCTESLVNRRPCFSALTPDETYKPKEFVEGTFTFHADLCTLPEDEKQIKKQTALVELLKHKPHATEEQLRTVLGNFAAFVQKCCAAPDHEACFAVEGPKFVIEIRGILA
The experiment in a line: FP, pH 6.2, no NaCl.

Experiment [1] has as its target human serum albumin (HSA) (human, UniProt P02768). The experiment in a line: FP, pH 7.4, 0.14 M NaCl, 0.1% caprylate.

Sequence of bovine serum albumin (P02769 25-607): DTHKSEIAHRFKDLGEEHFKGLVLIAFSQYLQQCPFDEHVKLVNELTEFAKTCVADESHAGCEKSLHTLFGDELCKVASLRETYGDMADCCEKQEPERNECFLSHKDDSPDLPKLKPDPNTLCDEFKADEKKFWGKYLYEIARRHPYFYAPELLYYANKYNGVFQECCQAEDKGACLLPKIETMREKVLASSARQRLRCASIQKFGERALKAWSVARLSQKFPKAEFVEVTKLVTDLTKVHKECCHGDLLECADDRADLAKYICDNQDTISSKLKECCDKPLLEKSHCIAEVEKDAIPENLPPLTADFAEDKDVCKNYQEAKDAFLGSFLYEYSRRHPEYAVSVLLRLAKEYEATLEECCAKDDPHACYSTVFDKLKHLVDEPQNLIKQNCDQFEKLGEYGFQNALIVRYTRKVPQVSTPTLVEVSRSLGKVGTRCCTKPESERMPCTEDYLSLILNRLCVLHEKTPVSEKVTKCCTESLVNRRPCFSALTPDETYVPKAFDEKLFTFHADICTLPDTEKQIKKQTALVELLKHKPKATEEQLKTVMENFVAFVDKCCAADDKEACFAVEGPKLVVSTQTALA

B1: DX-321 (peptide)
chain: AEGTGDRNMCKFSWIRSPAFCARADPEXK
modifications: disulfide cyclic, N-acetyl, C-amide, X = 6-aminohexanoic acid, fluorescein on Lys
B1: the Kd is above 200 µM in the experiment with chicken ovalbumin; 117 µM with rat serum albumin; above 200 µM in the experiment with bovine serum albumin; 38 µM with rhesus serum albumin; 21 µM with pig serum albumin; 75 µM in experiment [1].
